This note sets out measurements from paper PMC4475461.

Like-named read-outs stand apart in the source and are kept apart here.

The target of data set [1] is T1, HLTF HIRAN domain (Homo sapiens, UniProt Q14527 55-180).
T1 sequence: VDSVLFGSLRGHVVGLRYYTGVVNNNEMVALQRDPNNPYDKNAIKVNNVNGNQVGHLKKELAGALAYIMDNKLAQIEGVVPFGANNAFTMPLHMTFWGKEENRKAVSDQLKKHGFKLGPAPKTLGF
The data set is described as follows: NMR.

Data set [2] concerns the target T1, HLTF HIRAN domain. Kind of data set: NMR. This is another data set of the same source.

B1: d(GCTGATAAAT) duplex (dsDNA)
DNA 1: GCTGATAAAT
DNA 2: ATTTATCAGC
On to B1, for which, in data set [1], the binding result is “no binding”.

In the case of GCTGATAAAT (ssDNA) [d(GCTGATAAAT)], in data set [1], the binding result was “binds”.

As to TTTTTTTTTT (ssDNA) [dT10 (NMR)], the binding result in data set [2] is reported as “binds”.
